Measurements published in patent publication US20170369542A1 (Pieris, published 2017).
Where no end group is shown, it is not given here.

T1: lipocalin mutein of SEQ ID NO: 14, linked to PEG40 (branched 40k PEG-maleimide on the free Cys at position 87)
T1 construct: hNGAL mutein with Ser 87 back-mutated to Cys and PEGylated there
T1 chain: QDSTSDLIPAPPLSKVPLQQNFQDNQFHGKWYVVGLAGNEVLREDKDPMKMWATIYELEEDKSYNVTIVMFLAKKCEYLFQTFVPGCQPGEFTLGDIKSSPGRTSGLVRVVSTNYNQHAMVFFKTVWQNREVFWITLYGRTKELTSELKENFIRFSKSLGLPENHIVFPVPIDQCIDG

T2: lipocalin mutein of SEQ ID NO: 13, linked to PEG40 (branched 40k PEG-maleimide on the free Cys at position 87)
T2 construct: hNGAL mutein with Ser 87 back-mutated to Cys and PEGylated there
T2 chain: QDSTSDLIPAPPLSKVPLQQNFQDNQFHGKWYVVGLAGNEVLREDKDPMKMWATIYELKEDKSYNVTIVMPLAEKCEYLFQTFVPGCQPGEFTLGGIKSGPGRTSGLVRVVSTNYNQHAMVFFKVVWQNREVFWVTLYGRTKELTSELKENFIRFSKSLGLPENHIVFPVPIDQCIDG

T3: C-terminal biotinylated human Hepcidin-25 (human, not fully specified; biotinylated via a Lysine residue coupled to the C-terminus via a Mini-PEG linker)
T3 construct: Bought from Bachem AG; Captured on plates via Neutravidin; also called C-terminal biotinylated hepcidin; C-terminal biotinylated hHepcidin
T3 peptide: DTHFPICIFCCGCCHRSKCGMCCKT


Tests used:
[1] = biological target: murine ferroportin (FPN) carboxy-terminally fused with green fluorescent protein (GFP) (murine), Q9JHI9; assay: cell-based or functional assay
murine ferroportin (FPN) carboxy-terminally fused with green fluorescent protein (GFP) (murine), Q9JHI9, sequence (Q9JHI9 whole entry, the tested form may be a part): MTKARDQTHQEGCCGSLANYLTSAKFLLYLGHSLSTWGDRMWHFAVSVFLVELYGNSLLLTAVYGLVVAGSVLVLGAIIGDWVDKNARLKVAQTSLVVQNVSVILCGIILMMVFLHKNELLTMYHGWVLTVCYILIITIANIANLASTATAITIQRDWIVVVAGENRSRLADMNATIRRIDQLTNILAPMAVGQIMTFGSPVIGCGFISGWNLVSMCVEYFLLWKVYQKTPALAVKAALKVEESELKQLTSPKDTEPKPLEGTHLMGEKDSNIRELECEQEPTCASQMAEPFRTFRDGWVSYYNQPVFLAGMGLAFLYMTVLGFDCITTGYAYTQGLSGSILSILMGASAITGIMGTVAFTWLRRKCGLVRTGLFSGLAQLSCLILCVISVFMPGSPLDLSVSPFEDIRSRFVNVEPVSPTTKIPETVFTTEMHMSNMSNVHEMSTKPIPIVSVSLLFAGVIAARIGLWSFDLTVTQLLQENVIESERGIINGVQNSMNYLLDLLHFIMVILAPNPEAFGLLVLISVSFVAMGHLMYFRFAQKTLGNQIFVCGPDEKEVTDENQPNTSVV

[2] = biological target: T1, lipocalin mutein of SEQ ID NO: 14, …; assay: competition ELISA, free human hepcidin against captured biotinylated hepcidin
[3] = biological target: T2, lipocalin mutein of SEQ ID NO: 13, …; assay: as above
[4] = biological target: T3, C-terminal biotinylated human …; assay: direct ELISA, biotinylated hepcidin captured via Neutravidin
Experimental: A “direct” ELISA was performed to verify the binding affinity and specificity of the selected Lcn2 muteins. Therefore, a constant concentration of 1 μg/ml C-terminal biotinylated hepcidin (Bachem AG, CH) was captured on the surface of a polystyrol plate (Greiner, GE) via Neutravidin (Thermo Scientific, 5 μg/ml). Two step dilution series of purified Lcn2 muteins were incubated with the captured hepcidin for 1 h at room temperature and detected either via the Strep-tag II using a rabbit anti-strep-tag II polyconal antibody (GenScript, USA) or by using a scaffold-specific polyclonal rabbit antibody. In both cases an anti rabbit IgG-HRP conjugate (Abcam, UK) was employed as secondary detection antibody.
The absorption ΔA at […] was measured in an ELISA reader (Tecan, GE) and the data were fitted with Graphpad Prism software (Statcom, USA).

| EC80 of hepcidin-mediated degradation of the Fpn-GFP fusion protein (GFP fluorescence by flow cytometry) [1] [nM] | factor by which pegylation reduced the binding affinity (against the non-pegylated mutein) [2] [fold] | factor by which pegylation reduced the binding affinity (against the non-pegylated mutein) [3] [fold] | factor by which pegylation reduced the binding affinity (against the non-pegylated mutein) [4] [fold] | Binder |
| --- | --- | --- | --- | --- |
| 40 | 4 | 2 | – | DTHFPICIFCCGCCHRSKCGMCCKT (not fully specified (bridges); ends and bridges not checked, also called hHepcidin-25; non-biotinylated human hepcidin) [synthetic non-modified human Hepcidin-25] |
| – | – | – | 8 | pegylated mutein of SEQ ID NO: 1 (designed binder, branched 40k PEG-maleimide on Cys 87) QDSTSDLIPAPPLSKVPLQQNFQDNQFHGKWYVVGLAGNEVLREDKDPMKMWATIYELEEDKSYNVTIVMFLAKKCEYLFQTFVPGCQPGEFTLGDIKSSPGRTSGLVRVVSTNYNQHAMVFFKTVWQNREVFWITLYGRTKELTSELKENFIRFSKSLGLPENHIVFPVPIDQCIDG |
| – | – | – | 5 | pegylated mutein of SEQ ID NO: 8 (designed binder, branched 40k PEG-maleimide on Cys 87) QDSTSDLIPAPPLSKVPLQQNFQDNQFHGKWYVVGLAGNEVLREDKDPMKMWATIYELKEDKSYNVTIVMPLAEKCEYLFQTFVPGCQPGEFTLGGIKSGPGRTSGLVRVVSTNYNQHAMVFFKVVWQNREVFWVTLYGRTKELTSELKENFIRFSKSLGLPENHIVFPVPIDQCIDG |
